Results on 1 molecule are retold here after patent US20200332020A1 (REGENTS OF THE UNIVERSITY OF MINNESOTA, published 2020).

Assay [1] addresses HSPG2 (perlecan) on cells (human, UniProt P98160 22-4391). The experiment in a line: apparent KD, flow cytometry titration on tumor cells. (In flow cytometry, cells or beads pass a laser one at a time.)
Assay [2] addresses T1, Recombinant HSPG2 domain 1 (first 247 amino acids of human HSPG2, C-terminal His tag) (human, UniProt P98160 22-247).
T1 construct: range 1-247; The stated range counts from residue 1, so it includes the signal peptide; also called HSPG2D1; perlecan domain 1; not shown: C-terminal His tag from the pcDNA 3.3+ vector
The experiment in a line: biolayer interferometry (BLItz), HSPG2 domain 1 on Ni-NTA biosensor. As for the experimental part: We used biolayer inferometry (BLItz, Fortebio) to determine antibody binding kinetics specifically with purified HSPG2 domain 1. Ni-NTA biosensors were hydrated for 10 minutes in phosphate buffered saline. Following hydration, a 30 second baseline was established, followed by a 10-minute loading of the biosensor with 10 μg/mL HSPG2 domain 1 protein. The biosensor was then placed in PBS to establish baseline for 30 seconds. A two-step antibody association—dissociation cycle of 5 minutes each was then used to determine the kinetic association (kₐ) and dissociation (kd) rate constants. The equilibrium dissociation constant (KD) was calculated as KD=kd/kₐ
An important caveat with flow cytometry-based titration curves is the potential for avidity affects contributing to the binding, resulting in an ‘apparent KD’. Biophysical techniques are most often employed to generate the true, analytically relevant ‘intrinsic KD^{’} value. We chose biolayer interferometry as a means of assessing the kinetics of antibody-antigen binding with HSPG2D1.

B1: Tw1S4_6 IgG (antibody, V domains shown)
VH: EVQLLESGGGLVQPGGSLRLSCAASGFTFSSYAMSWVRQAPGKGLEWVSAIREDGIKTYYADSVKGRFTISRDNSKNTLYLQMNSLRAEDTAVYYCAKRARRFDYWGQGTLVTVS
VL: DIQMTQSPSSLSASVGDRVTITCRASQSISSYLNWYQQKPGKAPKLLIYNASLLQSGVPSRFSGSGSGTDFTLTISSLQPEDFATYYCQQSLRSPITFGQGTKVEIKR
A word on the koff: it is the rate constant with which the complex falls apart. Broadly, the kon is the second-order rate constant of association. In the case of B1, in assay [1], the Kd lay in the range of 125 to 275 nM. Further, in assay [2], the Kd came to 1790 nM, the koff is 0.0109 s⁻¹ and the kon stood at 6140 M⁻¹ s⁻¹.
